Experimental data taken from PMC3026963 (The Biochemical journal, 2010).

Target: protein kinase CK2 catalytic subunit α (human, UniProt P68400 1-391)
Experiment: SEC

Chain of protein kinase CK2 catalytic subunit α (P68400 whole entry): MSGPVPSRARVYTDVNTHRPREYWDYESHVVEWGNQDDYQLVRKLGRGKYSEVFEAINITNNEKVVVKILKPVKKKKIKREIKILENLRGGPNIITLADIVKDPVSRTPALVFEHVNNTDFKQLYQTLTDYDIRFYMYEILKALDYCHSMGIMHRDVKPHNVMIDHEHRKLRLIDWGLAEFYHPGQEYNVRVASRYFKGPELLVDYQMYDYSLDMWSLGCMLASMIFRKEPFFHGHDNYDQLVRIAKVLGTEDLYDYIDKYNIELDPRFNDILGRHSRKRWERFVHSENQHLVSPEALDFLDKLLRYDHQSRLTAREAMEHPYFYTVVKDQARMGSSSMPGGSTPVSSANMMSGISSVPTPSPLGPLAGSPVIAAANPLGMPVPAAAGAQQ

B1: protein kinase CK2 non-catalytic subunit β (natural protein)
chain: not shown
  binding result: binds
